Data from publication PMC2886031.
Where two headings read alike, the source gives them in different places.

What was measured:
[1] = target: T1, PacI (R.PacI) restriction endonuclease (Pseudomonas alcaligenes, UniProt D5MNX7 1-142); assay: X-ray crystallography
T1 sequence: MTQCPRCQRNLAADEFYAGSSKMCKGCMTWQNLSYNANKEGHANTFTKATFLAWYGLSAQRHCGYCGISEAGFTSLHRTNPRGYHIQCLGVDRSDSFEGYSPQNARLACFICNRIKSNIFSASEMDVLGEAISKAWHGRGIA

[2] = target: T1, PacI (R.PacI) restriction endonuclease; assay: X-ray crystallography; remark: listed apart in the source

B1: 18 bp PacI cognate duplex, cleaved product (dsDNA)
DNA 1: GAGGCTTAAT
DNA 2: TAAGCCGC
DNA 3: GCGGCTTAAT
DNA 4: TAAGCCTC
modifications: 5' phosphate at the cleaved ends
[1]
  binding result: binds

B2: 18 bp PacI cognate duplex (uncleaved) (dsDNA)
DNA 1: GAGGCTTAATTAAGCCGC
DNA 2: GCGGCTTAATTAAGCCTC
[2]
  binding result: binds
